# Laboratory results: the nanobody polyreactivity screen of Harvey et al. (2022)
# Assay: yeast display, Sf9 membrane polyspecificity reagent, FACS + sequencing; frameworks hold sequencing errors
# Summary of the method: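 Nanobodies came from a synthetic yeast display library in Saccharomyces cerevisiae BJ5465, induced with galactose for 36–48 hours and stained for 1 hour at 4 °C with 10% biotinylated, detergent-solubilized Sf9 membrane reagent. Cells were enriched on streptavidin microbeads and then FACS-sorted, with low and high (top ~1%) gates set on anti-HA fluorescence for expression and streptavidin fluorescence for reagent binding. Each polyreactivity label reflects the gate a clone came from. Genes were amplified by colony PCR, sequenced by MiSeq 2 × 250 and filtered by CDR length.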
row,Sequence,polyreactivity (PSR sort gate)
1,QVQLVESGGGLVQAGGSLRLSCAASGSTFQAYVMGWDRQAPGKERELVAAISRSGGSTYYADSVKGRFTISRDNAKNTVYLQLHSLKPEDTAVYYCAVDASRYGSTGHYGFYYWGQGTQVTVSS,low polyreactivity
2,QVQLVESGGGLVQAGGSLRLSCAASGRTFYKYAMGWYRQAPWKERELVAAISSDGTTYYADSVKGRFTISRDNAKNTVYLQMNSLKPEDTAVYYCAKDRKYADNDYWGQGTQVTVSS,low polyreactivity
3,QVQLVESGGCLVQEGGSLRLSCAASGSTVTYYDMGWYRQAPGKERELVATIDSTTRTYYADSVKGRFTISRDNAKNTVYLQMNSLKPEDTAVYYCAADMTWGYFYYLFYRYDYWGKGTQVTVSS,low polyreactivity
4,QVQLVESGGGLVQAGGSLRLSCAASGFTFYLNAMGWYRQAPGKERELVAAITGSGDDTYYADSVKGRFTISRDNAKNTVYLQMNSLKPEDTAVYYCAADVSYWYDYWGQGTQVTVSS,high polyreactivity
5,QVQLVESGGGVLQAGGSLRLSCAASGRIFYRYPMGWYRKAPGKVRELVAAISGSVGSTYADSVKGRLTISRDNAKNTVYLQMKSMKPEDTAVYYFDRETYRRYGAYDYWGQGTQVTVSS,low polyreactivity
6,QVQLVESGGGLVQAGGSLRLSCAASGRTFRPNAMGWYRQAPGKERELVASITRRGGTTYYADSVKGRFTNSRDNAKNTVYLQMNSLKPEDTAFYYCIGPRGYSSTRNGYWGQGTQVTVSS,high polyreactivity
7,QVQLVESGGGIVQAGGSLRKSCAASGFTFDENAMGWYRQAPGINYSGASTYYADSVKGRFTISRDNAKNTVYLQMNSLKPEDTAVYYCAAEVVAQMNYWGQGTQVTVSS,low polyreactivity
8,QVQLVESGGGLVQAGGSLRLSCAASGLIFWLNAMGWYRQAPGKDCELVAAISRGGSTNYADSVKGRFTISRDNAKNTVYFQMNSLKPEDSAVYYCAAGSRRAAWYDYSYPYGYWGQGTQVTVSS,high polyreactivity
9,QVQHVESGGGLGQAVGSLRLSCAASGFTFARNAMGWDRQAPGQERELVAAISSSGAGTYYADSVKGRFTISRDNSKNTVYLQMNSLKPEDTAVYYCAAYSWKGYDYWGQGTQVTVSS,high polyreactivity
10,PVQLVESGGGLVQAGGSLRLSCAASGFTFDRYAMGWYRQAPGKERELVAAISRSGATTYYADSVKGRFTISRDNAKNTVYLQMNSLKPEDTAVYYCNADDVWYEYDYWGQGTQVTVSS,high polyreactivity
11,QVQLVESGGGLVQAGGSLRLSCAASGSTFVVNAMGWYRQAPGKERELVAAIAGGGSTNYADSVKGRFTISRDNAKNTVYLQMNRLKPEDTAVYYCAKDLTQSYEYDYWGQGTQVTVSS,low polyreactivity
12,QVQLVESGGGLVQAGGILRLICAASGRIFKLNALGWYRQAPGKERELDAAITFSGGSTYYADSVKGRFRISRDNVNYTVYLQMNSMKPEYTGVYYCNAEFSNVELYYWGQGTHVTVSS,low polyreactivity
13,QVQHVESGGGLVQAGGSLRLSCAAYGSTFGVNAMGWYRQAPGKEREFVAAITWSSTSTYYADSVKGRFTISRDNAKNTVYLQMNSLKPEDTAVYYCAARQRIYRHYAYGYWGQGTQLTVSS,high polyreactivity
14,QVQLVESGGGLVQAGGSLRLSCAASGSIFNSYAMGWYRQAPGKETELVAAITRSDGSTYYADSVKGRFTISRDKAKNTVYLQMNSLKPEDTAVYYCAKGVGGYIYSEYDYWGQGTQVTVSS,low polyreactivity
15,QVQLVESGGGLVQAGGSLRLSCAASGSIFGQNAMGWYRQAPGKERELVAAITSGAGITYYADSVKGRFTISRDNAKNTVYLQMNSLKPEDPAVYYCNAVPSWSPSPLFDYWGQGTQVTVSS,low polyreactivity
16,QVQLVESGGGLVQAGGSLRLSCAASGSIFNSNAMGWYRQAPGKERELVAVISWSDGSTRYADSVKGRFTISRDNVKNTVYLQMNSLKPEDTAVYYCAADYLDGIYEYDYWGQGTQVTVSS,low polyreactivity
17,QVQLVESGGGLVQAGGSLRLSCAASGLTFDYNAMGWYRQAPGKERELVAAITSGGSTKYADSVKGRFTISRDNAKNTVYLQMNSLKPEDTAVYYCAATAYVWYYLSYTYYYWGQGTQVTVSS,low polyreactivity
18,QVQLVESGGGLVQAGGSLRLSCAASGYIFLTNAMGWYRPAPGKERELVAAISVSGGRTYYADSVKGRFTISRDNAKNTVYLQMNSLKPEDTAVYYCNTLLTYGYDYWGQGTQVTVSS,low polyreactivity
19,QVQLVESGGGLVQAGGSLRLSCAASGSTIYLYAMGWYRQAPGKERELVAAIRGRGGRTYYADSVKGRFTISRDNAKNTVYLQMNSLKPEDTAVDYCNADVYAYYRATTRFDYWGQGTQVTVSS,high polyreactivity
20,QVQLVESVGGLDQAGGSLRLSCAASGFTFYTNAMGWYRQAPGKEREFVAAISWSGTGTYYADSVKGRFTISRDNAKNTVYLQMYSLIPDDTAVYYCAARDRWRGGRKFDYWGQGTQVTVSS,high polyreactivity
21,QVQLVESGGGLVQAGGSLRLSCAASGRIFQIYAMGWYRQAPGKERELVAAISNRGGSTYYADSVKVRFTISRDNAKNTVYLQMNSLKPEDTAVYYFNATTGYGGYNYWGQGTKVTVSS,low polyreactivity

row,Sequence,polyreactivity (PSR sort gate)
1,QLQLVESGGWLVQAGGSLRLSCAASGGTIVTYAMGWYRQAPGKERELVAAISRRGGSTFSADSVKGRFTISRDNAKNTVYLQMNSLKPADTAVYYCAALSNHGYYIRMDYWGHGTQVTVSS,high polyreactivity
2,QVQLVESGGGLVQAGGSLRLSCAASGSTFNRYVMGWYRQAPGKERELVAANGGRTYYADSVKGRFTISRDNAKNTVYLQMNSLKPEDTAVYYCNARSYKHPYYRFDYWGQGTQVTVSS,high polyreactivity
3,QVQLVESGGGLVQAGGSLRLSCAASGITFNYYDMGWYRQEPWKARELVATINRSGGTTYYADSVKGRFTISRDTAKNTVYLQMNTMKPEDTAVYYCNALYSSRGRYHSGYDYWGQGTQVTVSS,high polyreactivity
4,QVQLVESGGGLVQAGGSLRLRCAASGRTFWVNAMGCDRQAPGTERELVAGITFRGGSTDYADSVKGRFTISRDNAQNTVYLQMNRLKPEDTAVDDCAARVYRYGAMDYWGQGTQVTVSS,high polyreactivity
5,QVQLVESGGGLVQAGGSLRLSCAASGRTFSSYTMGWYIQAPGKEMELVAAISWRGGSTYYADSVKGRFTISSDNAKNTVYLQMNSLKPEDTAVYYCAARSYLTPDYYYWGQGTQVNVSS,high polyreactivity
6,QVQLVESGGGLVQAGGSLRLSCAASGRTIKYTAMGWYRQAPGKERDLVAAITYSGGSTYYADSVKGRFTISRDNAKNTVYLQMNSLKPEDTAVYYCGQGTQVTVSS,low polyreactivity
7,QVQLVESGGGLVQAGGSLRLSCAASGFIFVYYAMGWYRQAPGKERELVAAINQSGGRTYYADSVKGRFTISRDNAKNTVYLQMNSLKPEDTAVYYCAAESWDLYRYGQKHEYWGQGTQVTVSS,low polyreactivity
8,QVQLVESGGGLVQAGGSLRLSCAASGRIFIGNAMGWYRQAPGKERELVAAITQSGGSTYYADSVKGRFTISRDNAKNTVYLQMNSLKPEDTAVYYCSKALRRPRSGGNPGQAYGYWGQGTQVTVSS,low polyreactivity
9,QVQLVESGGGLVQAGGRLRLSCAASGRTFTPYTMGWYIKAPGKEREFVAAIRTGGNTYYADSVKGRFTISRDNAKNTVYLQMNSLKPEDTAVFYCAARDRIGYRLYYWGQGTQVTVSS,high polyreactivity
10,QVQLVESGGGLVQAGGSLRLSCAASGSIFRGYAMGWYRQAPGKERELVAAITSSGGSTNYADSVKGRFTISRDNAKNTVYLQMNSLKPEDTAVYYCNATSEEVAEYDYWGQGTQVTVSS,low polyreactivity
11,QVQLVESGGGLVQAGGSLRLSCAASGTFARYAMGWYRQAPGKERELVAAITRRGGNTYYADSVKGRFTISRDNAKNTVYLQMNSLKPEDTAVYYCARDYYYNYWWMDYWGQGTQVTVSS,high polyreactivity
12,QVQLVESGGGLVQAGGSLRLSCAASGSILSSYAMGWYRQAPGKERELVAAISWRGGPTYYADSVKGRFTISRDNAKNTVYLQMNSLKPEDTAVYHCAAEFYDHPWLYDYWGQGTQVTVSS,low polyreactivity
13,RVQLQESGGGLVQAGGSLRLICAASGTNFIRGDMGWYRQAPGKEREFVATIDNGSNTYYADSEKGRFTISRDNAKNAVYLQMNCLKPGDTAVYYCVVDYQLSGRLRYWGQGTQVTLSS,low polyreactivity
14,QVQLVESGGGLVQAGGSLRLSCAASGRIFVRYTMGWYRQAPGKERELVARITSGGSTNYADSVKGRFTISRDNAKNTVYLQMNSLKPEDTAVYYCAKSYGPRFGYWGQGTQVTVSS,low polyreactivity
15,QVQLVESGGGLVQAGGSLRLSCAASGFRLNAMGWYRQAPGKERELVAAITASGGSTYYADSVKGRFTISRDNAKNTVYLQMNSQKPEDTAVYYCARYHPVRGYNYWGQGTQVTVSS,high polyreactivity
16,QVQLVESGGGLVQAGGSLRLSCAASGSTFYPNAMGWYRQAPGKERELVAAISRSGGSTYYADSVKGRFTISRDNAKNTVYLQMNSLKPEDTAVYYCAADGRSPARYDYWGQGTQVTVSS,low polyreactivity
17,QVQLVESGGGLVQAGGSLRLSCAASGITIREYAMGWYRQAPGKERELVASISGGGGSTSYADSVKGRFTISRDNAKNTVYLQMNSLKPEDTAVYYCATRYAIAGWVGYYYWGQGTQVTVSS,low polyreactivity
18,QVQLVESGGGLVQAGRSLRLSCAASGSTFVNYAMGWYRQAPGKERELVAAISRSGGRTYYADSVKGRFTISRDNAKNTVYLQMNSLKPEDTAVYYCAPLLLSPEYGYWGQGTQVTVSS,high polyreactivity
19,QVQLVESGGGLVQAGGSLRLSCAASVRTFKFYAMGWYRQAPGKERELVAAITSSGGSTYYADSVKGRFTISRVNAKNTVYLQMNSLKPEDTAVYYCAAVGYKGYGYDYWGQGTQVTVSS,high polyreactivity
20,QVQLVESGGGLVQAGGRLLLSCAASGRTFYRNAMGWYRQAPGKEREFVPSIRTSGGSTYYADSVKGRFTISRDNAKNTVYLQMNSLKPEDTAVYYCKKYRQQGWEFDYWGQGTQVTVSS,high polyreactivity
